Experimental findings from paper PMC10163920 (European journal of cell biology, 2022) are described below.

Common to all, as to assay: fluorescence polarisation
The target in assay [1] is Rabbit skeletal muscle actin (unlabeled actin monomers) (rabbit) (UniProt P68135).
The target of assay [2] is profilin-1 (wild-type) (UniProt P07737 1-140).
Assay [3] concerns the target profilin-1 H120E (actin-binding impaired control) (UniProt P07737 1-140, H120E).
In assay [4] the target is profilin-1 A20T (ALS-associated variant) (UniProt P07737 1-140, A20T).
profilin-1 A20T (ALS-associated variant), sequence (P07737 whole entry A20T): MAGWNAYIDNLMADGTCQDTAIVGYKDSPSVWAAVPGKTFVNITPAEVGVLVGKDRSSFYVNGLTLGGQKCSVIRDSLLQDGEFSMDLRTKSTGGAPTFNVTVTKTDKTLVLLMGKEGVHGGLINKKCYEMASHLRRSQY
Assay [5] addresses profilin-1 C71G (ALS-associated variant) (UniProt P07737 1-140, C71G).
Assay [6] concerns the target profilin-1 T109M (ALS-associated variant) (UniProt P07737 1-140, T109M).
In assay [7] the target is profilin-1 M114T (ALS-associated variant) (UniProt P07737 1-140, M114T).
profilin-1 M114T (ALS-associated variant), sequence (P07737 whole entry M114T): as the sequence (P07737 whole entry A20T) above, with T20A, M114T counted along it
The target in assay [8] is profilin-1 E117G (ALS-associated variant) (UniProt P07737 1-140, E117G).
profilin-1 E117G (ALS-associated variant), sequence (P07737 whole entry E117G): as the sequence (P07737 whole entry A20T) above, with T20A, E117G counted along it
In assay [9] the target is profilin-1 G118V (ALS-associated variant) (UniProt P07737 1-140, G118V).
profilin-1 G118V (ALS-associated variant), sequence (P07737 whole entry G118V): as the sequence (P07737 whole entry A20T) above, with T20A, G118V counted along it
Assay [10] has as its target profilin-1 R136W (ALS-associated variant) (UniProt P07737 1-140, R136W).
For assay [11], the target named is profilin-1 Q139L (ALS-associated variant) (UniProt P07737 1-140, Q139L).
profilin-1 Q139L (ALS-associated variant), sequence (P07737 whole entry Q139L): as the sequence (P07737 whole entry A20T) above, with T20A, Q139L counted along it

As a reminder, the Kd is the constant that tells how readily two partners part at equilibrium. Lower therefore signals a tighter complex.

Ends that are not written are not given here.

profilin-1 (wild-type) (UniProt P07737 1-140), sequence (P07737 whole entry): as the sequence (P07737 whole entry A20T) above, with T20A counted along it
profilin-1 (wild-type) (from UniProt P07737 1-140) (natural protein; other documents disagree on this pair), sequence (P07737 whole entry): as the sequence (P07737 whole entry A20T) above, with T20A counted along it
profilin-1 C71G (ALS-associated variant), sequence (P07737 whole entry C71G): as the sequence (P07737 whole entry A20T) above, with T20A, C71G counted along it
profilin-1 H120E (actin-binding impaired control), sequence (P07737 whole entry H120E): as the sequence (P07737 whole entry A20T) above, with T20A, H120E counted along it
profilin-1 T109M (ALS-associated variant), sequence (P07737 whole entry T109M): as the sequence (P07737 whole entry A20T) above, with T20A, T109M counted along it
profilin-1 R136W (ALS-associated variant), sequence (P07737 whole entry R136W): as the sequence (P07737 whole entry A20T) above, with T20A, R136W counted along it

In turn, “profilin-1 R88E (actin-binding impaired control) (from UniProt P07737 1-140) (natural protein)” gave an equilibrium dissociation constant (Kd) in [1] of 3720 nM. That is a single-digit micromolar value.

Take “profilin-1 (wild-type) (from UniProt P07737 1-140) (natural protein; other documents disagree on this pair)”: the Kd in [1] amounted to 99.6 nM.

In the case of IPPPPPLPGVASIPPPPPLPG (also: FITC, position not given here) [FITC-mDia1-derived poly-L-proline (PLP) peptide], the Kd stood at 2710 nM in assay [2]; 1650 nM in [4]; 2040 nM in [7]; 2090 nM in assay [9]; 3470 nM in [11]. The binding result in assay [3], in assay [5], in assay [6], in [8] and in assay [10] was “binds” in each case.
